Experimental data from the supplement of paper PMC9170038.

Tested on: K4 kissing-loop RNA reporter
Assay: apparent KD of K4 kissing-loop reporter; higher = weaker reporter binding
Details: Eterna round: R107
Experimental: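 RNA-MaP round R107: designed RNA switches with theophylline, tryptophan, arginine or FMN aptamers are transcribed on-chip within common flanks. They are titrated with a labelled K4 kissing-loop RNA reporter in RNA-MaP buffer (100 mM Tris pH 7.5, 80 mM KCl, 4 mM MgCl2), without ligand or with the indicated ligand. Median apparent KD per design.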

[1] = input ligand: theophylline 20 uM
[2] = input ligand: tryptophan 2.4 mM
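Also: bound reporter read as fluorescence of individual clusters on recovered sequencing chips by microscopy, with normalized cluster intensities fitted with a binding model.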

Sequence	apparent KD of K4 kissing-loop reporter (input ligand: FMN 200 uM) [µM]	apparent KD of K4 kissing-loop reporter (input ligand: arginine 13.2 mM) [µM]	apparent KD of K4 kissing-loop reporter (input ligand: none) [µM]	apparent KD of K4 kissing-loop reporter [1] [µM]	apparent KD of K4 kissing-loop reporter [2] [µM]
AUAUGCAGGAGAAGGAGCGUCGUUUCAAGUGAUGUUUGCAAGCGAGCUUACUAUAUAAGACGACAGGUAGGUCGCUCCUGCGUAA [#06 K4 Arginine B Exclusion]	0.166	0.15	0.155	0.141	0.149
CUGGGUUGACGAAAAGUCAACAAAUGAGAAGGAGCGCACGAAAGUGCAGGUAGGUCGCUCAAUCCAGUGAUGUUGGAUCAUCCAG [#SwitchBubble 12 #K4Late]	0.571	0.601	0.649	0.638	0.472
UAGCUCUACAGAAGGAGCGACGUUCUUAGACAGUGAUGUUGUCUAUAGUGAAUAUAGGAACGUCAGGUAGGUCGCUGUAGAGCUA [Arg B SS t11]	0.213	0.16	0.2	0.189	0.164
CUAUGGAAACAUAGUGAGCGGGAAACCGAUACCAGUAUGGAAACAUACCCUUGGCAGCGGAAUGCUCAAACGGAGUGAUGUUCCG [Theophylline A K4 22]	0.265	0.216	0.27	0.235	0.24
CCAUUCUUUUACGAUACCAGUCUAAUAUAUUUAAUCAAAACCCUCGCCGAGUGAUGUUCGGACCCUUGGCAGCGUCUGCGAGAGG [ettyxtkmullin]	0.606	0.472	0.758	0.603	0.495
CGUGCCCAGCCGGAUACCAGUGACCCGCUGGGAACCGCGGGCCCAGAGUGAUGUUCGGGACACCCUUGGCAGCCGCCUGGGCGGC [#2 Same State - Theophylline B Attempt #12 (HarryS)]	1.38	0.724	0.462	0.44	1.25
GGAUAGGACACGGCCGCCACUACCGAGGAUACUCGAAACAUUUCCUCAGAUGAGUGAUGUUCAUCUAGGACCGGGUGUCCUAUCG [KL-XTryp-B19 #analogue]	0.125	0.103	0.118	0.121	0.131
CCUUCCGACACGGCCGCCACUAAUUUCAUCAGAUUGCCCGGAUUUCCAAGAUAGUGAUGUUGUACUAGGACCGGGUGUCAGGUCG [theeternabot_exclusion_KL_Trp_B_16]	0.875	0.68	0.816	0.76	0.775
UUAGUGACAAGUCAGAUUCUGACAAUUGAUACCAGAUAGAAUUCUAUCCCUUGGCAGCAGUGAUGUUGUUGCAAAUAGUCACAUU [AK3 Exc Theophylline A]	0.263	0.209	0.251	0.242	0.232
UUUUAAAUGUCUGAUACCAGAGAAAAUAUAUGUAGUGAUGUUAUAUACAAAUUAAAUAAGCUCCCUUGGCAGCAGUAUUAAUUUU [AstrosExc-TheB#10]	0.628	0.694	0.758	0.761	0.518
AGUGAUGUGGGAAGGAGCGGUAUAUGAGUUCAGUGAUGUUGAAGUGAUGAUAUAGUGAUGUGCCAGGUAGGUCGCCUAGAUGUUA [KL-XARG-B5]	0.281	0.144	0.21	0.146	0.202
GGACGACAGUCGGCCGCCACUCACAGCCGAGUGAUGUUCGGGAUUGUAGCGGAGUGAUGUUUCGCGAGGACCGGGACUGCAGUCC [Same State Typtophan B GF 27]	0.2	0.166	0.184	0.171	0.141
UAUUUAAUGUCAGGAUAUCGUAUACGAGUGAUGUUCGUAUUUCUACUAUAGAUUAUUUAAAUUUUUCGAGAAGGGACAAUAUUUA [KL-SSFMN-B4]	0.177	0.208	0.193	0.186	0.158
CCAGCGGGCACGGCCGCCACUCUCUCGAGUGAUGUUUGCGGAGUCAGGCCGGCUCAGUACGUCACGAGGACCGGGUGCAAUUUAC [theeternabot_exclusion_KL_Trp_B_40]	0.986	0.425	0.829	0.506	0.46
CGCGCGGGUUUGAGAGGGUUCGCGCGAAGUGAGGAUAUUUAGGGAGAAAGAAGGCACUAUAAAAUAUAGUGAUGUUAUAUAAGGG [SSFMNA.H]	0.699	0.0939	1.11	0.371	0.342
AAGCGUAAAAUGGCGGACAUACUGCUCCCACGAGGACCGGUACGGCCGCCACUCGAAUGCGGCAGUGAUGUUGCCGCCUUAGCGU [KL-XTryp-A19]	0.0846	0.0775	0.0791	0.0752	0.0761

Sequence	apparent KD of K4 kissing-loop reporter (input ligand: FMN 200 uM) [µM]	apparent KD of K4 kissing-loop reporter (input ligand: arginine 13.2 mM) [µM]	apparent KD of K4 kissing-loop reporter (input ligand: none) [µM]	apparent KD of K4 kissing-loop reporter [1] [µM]	apparent KD of K4 kissing-loop reporter [2] [µM]
UAAUCACUCGAACUGCAAGUACGAGUGGAACGAGGACCGGUACGGCCGCCACUCGAUAACUUGCAGUGAUGUUGCAAGUAAGAAU [(T)''-(K)'-(T)'-(T1)-(T2)-(K1)-(K2)_Design7]	0.0605	0.0524	0.0572	0.0528	0.121
CAUGGAGUGAUGCUCCAUGAUCGGGCUUGGCAGGAUAUGGGAUUUUCCAGAAGGGUCGAUCCCAGCGAGUGAUGUUCGCUGGUCU [Exclusion FMN A GF 26]	0.106	0.121	0.126	0.151	0.116
GGAUCCUAGGCGGCCGCCACUCCAAUUGGCCGAAAGGCCUGAUACCGAGUGAUGUUCGGUUGGAGGAGGACCGGGCCUAGGAUCC [#2 Exclusion - Tryptophan B Attempt #2 (HarryS)]	0.144	0.132	0.118	0.165	0.104
GCCGUACGCAUGGAUACCAGCUAGACCGAGUGAUGUUCAGGUCUGAAUGCCGGUAAUAAGAGCCCUUGGCAGCCAUGCGUACGGC	0.361	0.262	0.358	0.335	0.307
UCCUACGAGGUAACGUGGAUAUCUCGUUGCAAGGAUAUCUGGAAACAGAGAAGGUGCAACAUUAUCAGCAGUGAUGUUGCUGACC	0.215	0.247	0.276	0.389	0.329
ACGUAUAUCAGAGGAUAUCGUAUUAAUAUUUUAUCUAUAUAUAUAUGCAGUGAUGUUGCUAUAAUUCGAGAAGGCUGAUUUACGA [JR_ExcFMNB_Sub011]	0.109	0.109	0.084	0.12	0.0814
GCUAGGCAUGCAGGAUAUCGCCGAGUGAUGUUCGGUAGGCCGCUUUCUUUCUUUCUUUGCGGCCAGCGAGAAGGGCAUGCCUAGC	0.139	0.112	0.108	0.068	0.118
GACUGGAGUGAUGUUCCAUUAACGAUCCUACGAGGACCGGUACGGCCGCCACUCGAAAUGCAGUGAUGUUGCAGCCAGCCGUACU [Exclusion Trptophan A GF 8]	0.157	0.18	0.162	0.192	0.142
AUUAAUAACUGAGGAUAUCGUUUUACUGUAGUGAUGUUACAGAAAAUGCACAUUAUAAUUUCUAUUCGAGAAGGCAGAAUAAUUA [JR_ExcFMNB_Sub013]	0.11	0.0755	0.0745	0.0741	0.0654
AAGCAGUCACUCGAAUCCAUCGAAGAUGGGCGAGGACCGGUACGGCCGCCACUCGGAGUGAUGUUCCGCAGACUGCAAAAUAAAA	0.636	0.402	0.863	0.58	0.478
AGUUCUUGCCGAAGGAGCGAGGCAGAGUGAUGUUCUGCAAGAGGUCGAAAGACCUCACUGCCUCAGGUAGGUCGCGGCAUGAACA [Omei KL Arginine B Exc A v4]	0.801	0.509	0.93	0.602	1.05
UAAUAAAUUCCAGCUGUAUCACUCUUCGAAGGAGCGGACGAAAGUCCAGGUAGGUCGCGAAGAGUGAUGUUCUUUGCGGCGCUGG [Omei KL Arginine A Exc A v6]	0.0823	0.0684	0.0948	0.0766	0.0571
AGUACAGACACGGCCGCCACUCAGAAGAAGACAGUAGUGAUGUUACUGAUGGUGAGAAUAAUAAAGAGGACCGGGUGUUGUGCAA [#04 K4 Tryptophan B Same State]	0.222	0.202	0.224	0.24	0.138
GCCUAGCAGGGAAGGAGCGCCAGGAGAAGAAAUGGAGAGAGUUGAGUGAUGUUCAAAUGGUGGCAGGUAGGUCGCCCUGCUAGGC [KL-SSArg B12]	0.388	0.298	0.583	0.761	0.274
UGUCAUUGGUCUGAUACCAGAAGAAAUCUGGAGUGAUGUUCCAAGUCGACAAAAUGUCGCUUCCCUUGGCAGCAGACCGAUGACU [TheoBS 23 #SwitchBubble 13 #StaticStem]	0.393	0.331	0.377	0.222	0.349
AGACUACUGACAGGAUAUAACAUAUUAGCUCGUAUACCAAAGGUAUACGAGCACCUUCUAGUGAUGUUAGAAGGGUCGGUAGUCA [Omei KL FMN B Exc B v1]	0.297	0.0998	0.106	0.0962	0.118
